Measured values: article PMC6468240

Columns and labels:
[1] = target: recombinant E. coli recA, His-tagged (E. coli) (UniProt P0A7G6); experiment: SPR
[2] = target: recombinant NgAgo-His (Natronobacterium gregoryi); experiment: SPR

Substance | Kd [1] [µM] | koff [1] [s⁻¹] | kon [1] [M⁻¹ s⁻¹] | Kd [2] [µM] | koff [2] [s⁻¹] | kon [2] [M⁻¹ s⁻¹]
recombinant NgAgo-His (natural protein) | 0.0306 | 0.000707 | 23200 | – | – | –
recombinant E. coli recA, His-tagged (from UniProt P0A7G6 1-353) (natural protein) | – | – | – | 0.0424 | 0.00024 | 5740
